Reference: publication PMC6610660 (Structure (London, England : 1993), 2019)
One block for each molecule: values may come before it.

What was measured:
[1] = biological target: ScNatA/Naa50 (Saccharomyces cerevisiae, UniProt P07347+P12945+Q08689); assay: X-ray crystal structure, […] Å; type: binding; details: site between Naa10 and Naa15
[2] = biological target: GST-ScNaa50 (Saccharomyces cerevisiae, UniProt Q08689); assay: ITC; type: binding; details: 20 °C, pH 7.0, 200 mM NaCl, 1 mM DTT; GST fusion, free GST negative
Sequence of GST-ScNaa50 (Q08689 whole entry, the tested form may be a part): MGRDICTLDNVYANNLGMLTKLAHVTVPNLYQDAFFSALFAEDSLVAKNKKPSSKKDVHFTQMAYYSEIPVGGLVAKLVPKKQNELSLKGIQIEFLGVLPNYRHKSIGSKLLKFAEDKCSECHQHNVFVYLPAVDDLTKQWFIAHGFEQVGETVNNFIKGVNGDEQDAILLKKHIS

[3] = biological target: T1, SpNatA (Schizosaccharomyces pombe, UniProt O74985+Q9UTI3); assay: ITC; type: binding; details: 20 °C, pH 7.0, 200 mM NaCl, 1 mM DTT; Naa10 site
T1 sequence (Q9UTI3 1-156): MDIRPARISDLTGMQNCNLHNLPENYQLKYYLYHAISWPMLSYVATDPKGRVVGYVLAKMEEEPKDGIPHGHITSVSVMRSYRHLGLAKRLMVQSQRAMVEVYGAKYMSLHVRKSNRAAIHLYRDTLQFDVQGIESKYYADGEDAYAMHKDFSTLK
T1 sequence (O74985 1-729): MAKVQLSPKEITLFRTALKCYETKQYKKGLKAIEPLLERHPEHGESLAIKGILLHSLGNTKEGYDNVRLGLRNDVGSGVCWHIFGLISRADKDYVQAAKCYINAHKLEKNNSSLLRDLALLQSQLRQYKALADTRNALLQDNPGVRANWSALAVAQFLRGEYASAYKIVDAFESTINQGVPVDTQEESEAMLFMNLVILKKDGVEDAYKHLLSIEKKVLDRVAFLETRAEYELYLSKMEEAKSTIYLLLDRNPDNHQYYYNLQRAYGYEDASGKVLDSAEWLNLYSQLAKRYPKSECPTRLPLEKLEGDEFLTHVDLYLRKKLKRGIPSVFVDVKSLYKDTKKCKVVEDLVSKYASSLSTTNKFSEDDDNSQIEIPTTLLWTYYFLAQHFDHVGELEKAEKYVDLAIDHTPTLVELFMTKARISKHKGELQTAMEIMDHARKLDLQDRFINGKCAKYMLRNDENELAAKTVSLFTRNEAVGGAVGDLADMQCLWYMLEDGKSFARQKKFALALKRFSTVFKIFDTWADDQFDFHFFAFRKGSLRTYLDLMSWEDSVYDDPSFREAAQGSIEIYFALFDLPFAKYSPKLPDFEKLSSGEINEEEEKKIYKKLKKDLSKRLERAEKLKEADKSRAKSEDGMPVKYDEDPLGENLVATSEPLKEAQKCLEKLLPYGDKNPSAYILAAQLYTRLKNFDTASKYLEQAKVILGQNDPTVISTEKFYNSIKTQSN

[4] = biological target: T2, human Naa50 (human, UniProt Q9GZZ1 1-169); assay: differential scanning fluorimetry
T2 sequence: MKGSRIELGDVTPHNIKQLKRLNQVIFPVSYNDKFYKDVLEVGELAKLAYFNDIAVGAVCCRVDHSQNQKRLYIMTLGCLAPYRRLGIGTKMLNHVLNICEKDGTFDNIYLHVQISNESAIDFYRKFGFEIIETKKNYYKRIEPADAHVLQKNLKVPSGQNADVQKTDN

[5] = biological target: Schizosaccharomyces pombe Naa50 labeled with Fluorescein-5-Maleimide (S. pombe); assay: fluorescence polarisation
[6] = biological target: Schizosaccharomyces pombe Naa50 (S. pombe); assay: differential scanning fluorimetry

Sequence of ScNatA/Naa50 (Q08689 whole entry, one chain of several, the tested form may be a part): as the sequence (Q08689 whole entry, the tested form may be a part) above

Molecule: O=P(O)(O)O[C@H]1[C@H](OP(=O)(O)O)[C@@H](OP(=O)(O)O)[C@H](OP(=O)(O)O)[C@@H](OP(=O)(O)O)[C@H]1OP(=O)(O)O [IP6]
X-ray crystal structure, 2.7 Å [1]: Clear electron density for IP6 was visible between Naa10 and Naa15

Molecule: CC(=O)SCCNC(=O)CCNC(=O)[C@H](O)C(C)(C)COP(=O)(O)OP(=O)(O)OC[C@H]1O[C@@H](n2cnc3c(N)ncnc32)[C@H](O)[C@@H]1OP(=O)(O)O [acetyl-CoA]
ITC [2]: binding signal was detected by ITC between GST-ScNaa50 and acetyl-CoA
dissociation constant [3]: Representative ITC curve of acetyl-CoA titrated into SpNatA. The calculated dissociation constant is indicated

B1: human NatA (hNaa15/hNaa10 complex), wild type (complex)
chain 1: MPAVSLPPKENALFKRILRCYEHKQYRNGLKFCKQILSNPKFAEHGETLAMKGLTLNCLGKKEEAYELVRRGLRNDLKSHVCWHVYGLLQRSDKKYDEAIKCYRNALKWDKDNLQILRDLSLLQIQMRDLEGYRETRYQLLQLRPAQRASWIGYAIAYHLLEDYEMAAKILEEFRKTQQTSPDKVDYEYSELLLYQNQVLREAGLYREALEHLCTYEKQICDKLAVEETKGELLLQLCRLEDAADVYRGLQERNPENWAYYKGLEKALKPANMLERLKIYEEAWTKYPRGLVPRRLPLNFLSGEKFKECLDKFLRMNFSKGCPPVFNTLRSLYKDKEKVAIIEELVVGYETSLKSCRLFNPNDDGKEEPPTTLLWVQYYLAQHYDKIGQPSIALEYINTAIESTPTLIELFLVKAKIYKHAGNIKEAARWMDEAQALDTADRFINSKCAKYMLKANLIKEAEEMCSKFTREGTSAVENLNEMQCMWFQTECAQAYKAMNKFGEALKKCHEIERHFIEITDDQFDFHTYCMRKITLRSYVDLLKLEDVLRQHPFYFKAARIAIEIYLKLHDNPLTDENKEHEADTANMSDKELKKLRNKQRRAQKKAQIEEEKKNAEKEKQQRNQKKKKDDDDEEIGGPKEELIPEKLAKVETPLEEAIKFLTPLKNLVKNKIETHLFAFEIYFRKEKFLLMLQSVKRAFAIDSSHPWLHECMIRLFNTAVCESKDLSDTVRTVLKQEMNRLFGATNPKNFNETFLKRNSDSLPHRLSAAKMVYYLDPSSQKRAIELATTLDESLTNRNLQTCMEVLEALYDGSLGDCKEAAEIYRANCHKLFPYALAFMPPGYEEDMKITVNGDSSAEAEELANEI
chain 2: MNIRNARPEDLMNMQHCNLLCLPENYQMKYYFYHGLSWPQLSYIAEDENGKIVGYVLAKMEEDPDDVPHGHITSLAVKRSHRRLGLAQKLMDQASRAMIENFNAKYVSLHVRKSNRAALHLYSNTLNFQISEVEPKYYADGEDAYAMKRDLTQMADELRRHLELKEKGRHVVLGAIENKVESKGNSPPSSGEACREEKGLAAEDSGGDSKDLSEVSETTESTDVKDSSEASDSAS
melting temperature of NatA with Naa50 added (NatA alone 44 °C) [4]: 46.6 °C

Kd [5]: 17 nM
melting temperature of NatA with Naa50 added (NatA alone 37.8 °C) [6]: 40.4 °C
B2: Schizosaccharomyces pombe NatA (SpNaa15/SpNaa10 complex), wild type (complex)
chain 1: MAKVQLSPKEITLFRTALKCYETKQYKKGLKAIEPLLERHPEHGESLAIKGILLHSLGNTKEGYDNVRLGLRNDVGSGVCWHIFGLISRADKDYVQAAKCYINAHKLEKNNSSLLRDLALLQSQLRQYKALADTRNALLQDNPGVRANWSALAVAQFLRGEYASAYKIVDAFESTINQGVPVDTQEESEAMLFMNLVILKKDGVEDAYKHLLSIEKKVLDRVAFLETRAEYELYLSKMEEAKSTIYLLLDRNPDNHQYYYNLQRAYGYEDASGKVLDSAEWLNLYSQLAKRYPKSECPTRLPLEKLEGDEFLTHVDLYLRKKLKRGIPSVFVDVKSLYKDTKKCKVVEDLVSKYASSLSTTNKFSEDDDNSQIEIPTTLLWTYYFLAQHFDHVGELEKAEKYVDLAIDHTPTLVELFMTKARISKHKGELQTAMEIMDHARKLDLQDRFINGKCAKYMLRNDENELAAKTVSLFTRNEAVGGAVGDLADMQCLWYMLEDGKSFARQKKFALALKRFSTVFKIFDTWADDQFDFHFFAFRKGSLRTYLDLMSWEDSVYDDPSFREAAQGSIEIYFALFDLPFAKYSPKLPDFEKLSSGEINEEEEKKIYKKLKKDLSKRLERAEKLKEADKSRAKSEDGMPVKYDEDPLGENLVATSEPLKEAQKCLEKLLPYGDKNPSAYILAAQLYTRLKNFDTASKYLEQAKVILGQNDPTVISTEKFYNSIKTQSN
chain 2: MDIRPARISDLTGMQNCNLHNLPENYQLKYYLYHAISWPMLSYVATDPKGRVVGYVLAKMEEEPKDGIPHGHITSVSVMRSYRHLGLAKRLMVQSQRAMVEVYGAKYMSLHVRKSNRAAIHLYRDTLQFDVQGIESKYYADGEDAYAMHKDFSTLK

increase of the melting temperature of NatA on addition of Naa50 [6]: 7.4 °C
B3: Saccharomyces cerevisiae NatA (ScNaa15/ScNaa10 complex), wild type (complex)
chain 1: MSRKRSTKPKPAAKIALKKENDQFLEALKLYEGKQYKKSLKLLDAILKKDGSHVDSLALKGLDLYSVGEKDDAASYVANAIRKIEGASASPICCHVLGIYMRNTKEYKESIKWFTAALNNGSTNKQIYRDLATLQSQIGDFKNALVSRKKYWEAFLGYRANWTSLAVAQDVNGERQQAINTLSQFEKLAEGKISDSEKYEHSECLMYKNDIMYKAASDNQDKLQNVLKHLNDIEPCVFDKFGLLERKATIYMKLGQLKDASIVYRTLIKRNPDNFKYYKLLEVSLGIQGDNKLKKALYGKLEQFYPRCEPPKFIPLTFLQDKEELSKKLREYVLPQLERGVPATFSNVKPLYQRRKSKVSPLLEKIVLDYLSGLDPTQDPIPFIWTNYYLSQHFLFLKDFPKAQEYIDAALDHTPTLVEFYILKARILKHLGLMDTAAGILEEGRQLDLQDRFINCKTVKYFLRANNIDKAVEVASLFTKNDDSVNGIKDLHLVEASWFIVEQAEAYYRLYLDRKKKLDDLASLKKEVESDKSEQIANDIKENQWLVRKYKGLALKRFNAIPKFYKQFEDDQLDFHSYCMRKGTPRAYLEMLEWGKALYTKPMYVRAMKEASKLYFQMHDDRLKRKSDSLDENSDEIQNNGQNSSSQKKKAKKEAAAMNKRKETEAKSVAAYPSDQDNDVFGEKLIETSTPMEDFATEFYNNYSMQVREDERDYILDFEFNYRIGKLALCFASLNKFAKRFGTTSGLFGSMAIVLLHATRNDTPFDPILKKVVTKSLEKEYSENFPLNEISNNSFDWLNFYQEKFGKNDINGLLFLYRYRDDVPIGSSNLKEMIISSLSPLEPHSQNEILQYYL
chain 2: MPINIRRATINDIICMQNANLHNLPENYMMKYYMYHILSWPEASFVATTTTLDCEDSDEQDENDKLELTLDGTNDGRTIKLDPTYLAPGEKLVGYVLVKMNDDPDQQNEPPNGHITSLSVMRTYRRMGIAENLMRQALFALREVHQAEYVSLHVRQSNRAALHLYRDTLAFEVLSIEKSYYQDGEDAYAMKKVLKLEELQISNFTHRRLKENEEKLEDDLESDLLE
